Assay results from PMC10336132 (2023).

Tests used:
SdpB(26-536) = biological target: T1, SdpB(26-536) (Caulobacter crescentus NA1000, UniProt A0A0H3C791 26-536, biotinylated using NHS-PEG4-Biotin (for BLI)); experiment: BLI
T1 chain: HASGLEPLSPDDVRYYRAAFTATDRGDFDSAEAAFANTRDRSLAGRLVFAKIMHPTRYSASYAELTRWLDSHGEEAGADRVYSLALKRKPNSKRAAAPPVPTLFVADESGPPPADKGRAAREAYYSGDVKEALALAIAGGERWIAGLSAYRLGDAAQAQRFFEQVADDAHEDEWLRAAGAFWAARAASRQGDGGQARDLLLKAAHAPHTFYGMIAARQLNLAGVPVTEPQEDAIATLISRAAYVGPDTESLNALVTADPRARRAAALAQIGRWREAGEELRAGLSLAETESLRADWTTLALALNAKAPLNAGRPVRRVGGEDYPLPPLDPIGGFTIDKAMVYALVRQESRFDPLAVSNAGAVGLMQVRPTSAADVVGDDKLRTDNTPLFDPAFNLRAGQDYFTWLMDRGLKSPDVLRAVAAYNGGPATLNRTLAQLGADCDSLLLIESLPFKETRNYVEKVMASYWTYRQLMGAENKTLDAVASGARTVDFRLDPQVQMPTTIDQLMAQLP

CrbA(371-451) = biological target: T2, CrbA(371-451) (Caulobacter crescentus NA1000, UniProt A0A0H3C8K5 371-451, biotinylated using NHS-PEG4-Biotin (for BLI)); experiment: BLI
T2 chain: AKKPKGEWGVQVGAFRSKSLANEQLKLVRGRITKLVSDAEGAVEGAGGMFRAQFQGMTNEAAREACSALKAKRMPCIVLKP

His6-SdpA(21-699) = biological target: T3, His6-SdpA(21-699) (Caulobacter crescentus NA1000, UniProt A0A0H3C7P1 21-699, biotinylated using NHS-PEG4-Biotin (for BLI)); experiment: BLI
T3 chain: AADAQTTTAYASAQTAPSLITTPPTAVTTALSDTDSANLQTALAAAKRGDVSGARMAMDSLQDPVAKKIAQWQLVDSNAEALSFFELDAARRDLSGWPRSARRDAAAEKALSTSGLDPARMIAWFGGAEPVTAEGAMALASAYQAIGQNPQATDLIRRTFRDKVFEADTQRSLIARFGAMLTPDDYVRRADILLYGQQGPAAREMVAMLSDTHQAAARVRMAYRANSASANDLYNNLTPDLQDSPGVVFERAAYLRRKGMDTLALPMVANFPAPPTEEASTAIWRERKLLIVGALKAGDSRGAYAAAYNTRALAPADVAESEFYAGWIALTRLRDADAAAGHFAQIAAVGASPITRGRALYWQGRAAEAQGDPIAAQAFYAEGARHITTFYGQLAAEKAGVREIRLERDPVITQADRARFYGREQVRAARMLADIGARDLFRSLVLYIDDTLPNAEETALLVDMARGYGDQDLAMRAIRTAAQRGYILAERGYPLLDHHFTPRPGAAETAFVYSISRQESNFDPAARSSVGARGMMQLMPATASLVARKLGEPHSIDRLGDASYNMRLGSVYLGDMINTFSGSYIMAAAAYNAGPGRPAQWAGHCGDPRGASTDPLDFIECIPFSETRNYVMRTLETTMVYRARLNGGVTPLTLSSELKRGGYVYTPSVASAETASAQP

FtsN(51-266) = biological target: T4, FtsN(51-266) (Caulobacter crescentus NA1000, UniProt B8GX61 51-266, biotinylated using NHS-PEG4-Biotin (for BLI)); experiment: BLI
T4 chain: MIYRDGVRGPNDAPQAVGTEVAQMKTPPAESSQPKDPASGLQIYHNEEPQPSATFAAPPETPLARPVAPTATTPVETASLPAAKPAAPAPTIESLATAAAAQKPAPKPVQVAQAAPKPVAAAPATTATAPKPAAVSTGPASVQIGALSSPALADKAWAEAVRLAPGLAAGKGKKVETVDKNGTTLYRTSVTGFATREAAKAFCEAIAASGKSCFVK

AmiC(35-395) = biological target: T5, AmiC(35-395) (Caulobacter crescentus NA1000, UniProt A0A0H3C9I3 35-395, biotinylated using NHS-PEG4-Biotin (for BLI)); experiment: BLI
T5 chain: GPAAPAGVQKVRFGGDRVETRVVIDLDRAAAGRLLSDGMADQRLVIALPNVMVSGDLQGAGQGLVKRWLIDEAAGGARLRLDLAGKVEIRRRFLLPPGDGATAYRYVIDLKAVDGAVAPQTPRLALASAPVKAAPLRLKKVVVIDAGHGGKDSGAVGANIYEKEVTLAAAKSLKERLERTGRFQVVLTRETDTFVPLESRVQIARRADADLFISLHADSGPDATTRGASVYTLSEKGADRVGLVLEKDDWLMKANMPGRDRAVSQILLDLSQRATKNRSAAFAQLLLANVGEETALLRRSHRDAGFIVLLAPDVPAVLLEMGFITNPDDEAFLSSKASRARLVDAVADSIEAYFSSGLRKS

[1] = biological target: SdpA, SdpB, AmiC, the SPOR domain of CrbA and the periplasmic region of FtsN; experiment: BLI; biotinylated target immobilised on streptavidin (SAX) sensors, DipM as analyte at several concentrations; equilibrium shifts fitted to a one-site model; 50 mM HEPES/NaOH pH 7.2, 50 mM NaCl, 5 mM MgCl2, 0.1 mM EDTA, 10% glycerol, 10 µM BSA, 0.01% Triton X-100

B1: MAS-DipM(26-609)-His6 (natural protein)
chain: MASGQSGQRFTPNFPITQPAAPPPGETIQAQPGEAESLPRPTPIPVQSAPPIAQAELPPPAPVSTPAPAPQPVLRATPPRTVVTTTVTGPVVEVAGKPQVRVVESGDALDAIARGMGSTRAELVKLNDLEPPYRLKLGQKIKGPATTAKAYVVQTGDTMFAIAKRFNVTAAALAEENDLKSGAAIKKGQKLLLPDGYKDKGPIKTTQVIPGTPATMVAEAEPAPATTRPATPAATPSRPVRQPVSEETSEPATTSTTTLSVTGSVVTVAGPRQVHTVKSGDTLTAIARKFDMSVSELAEANKLDTEKPLKLGAKIKGPATTQKAYSVQTGDTLGEIAKRFNVSVKALAAENNLRATASLKKGQKIALPDGFRDKGPIRTTTTTRPATPPANTYARVDSSAAAASTPSSPVPYTPSGAAPRPSAPVAAQPITPPPSSGRTIIETAAAPTEAEIIASGKGKFAWPLRGDIISSFGVKGTGQRNDGLNIRAPQGTPVLSSADGEIAYAGNQVPTFGNLVLVKHADGWVTAYAHLSSTNVKMRQQVKQGEQLGTVGATGGVNEPQLHFEMRYAPTVKDKAKPVDPALVLPR
**Q.** How did the Kd (SdpB(26-536)) turn out when B1 was run?
**A.** 3.5 µM

**Q.** And the Kd (CrbA(371-451))?
**A.** 46.3 µM

**Q.** What about the Kd (His6-SdpA(21-699)) of the same binder?
**A.** 12.1 µM

**Q.** What about the Kd (FtsN(51-266)) of the same binder?
**A.** 20 µM

**Q.** What about the Kd (AmiC(35-395)) of the same binder?
**A.** 18.3 µM

**Q.** What about the Kd [1] of the same binder?
**A.** 3 to 46 µM
